Assay results from paper PMC9897468.

Legend:
microtubules (MTs) [1] = experiment: TIRF-M dwell time of diffusing molecules on microtubules
[2] = target: Alexa-647-labeled KIF5AA (mouse) (UniProt P33175); experiment: dual color TIRF-M in vitro motility reconstitution
microtubules (MTs) [3] = experiment: TIRF-M dwell time on microtubules with EB1

Alexa-647-labeled KIF5AA (mouse), sequence (P33175 whole entry): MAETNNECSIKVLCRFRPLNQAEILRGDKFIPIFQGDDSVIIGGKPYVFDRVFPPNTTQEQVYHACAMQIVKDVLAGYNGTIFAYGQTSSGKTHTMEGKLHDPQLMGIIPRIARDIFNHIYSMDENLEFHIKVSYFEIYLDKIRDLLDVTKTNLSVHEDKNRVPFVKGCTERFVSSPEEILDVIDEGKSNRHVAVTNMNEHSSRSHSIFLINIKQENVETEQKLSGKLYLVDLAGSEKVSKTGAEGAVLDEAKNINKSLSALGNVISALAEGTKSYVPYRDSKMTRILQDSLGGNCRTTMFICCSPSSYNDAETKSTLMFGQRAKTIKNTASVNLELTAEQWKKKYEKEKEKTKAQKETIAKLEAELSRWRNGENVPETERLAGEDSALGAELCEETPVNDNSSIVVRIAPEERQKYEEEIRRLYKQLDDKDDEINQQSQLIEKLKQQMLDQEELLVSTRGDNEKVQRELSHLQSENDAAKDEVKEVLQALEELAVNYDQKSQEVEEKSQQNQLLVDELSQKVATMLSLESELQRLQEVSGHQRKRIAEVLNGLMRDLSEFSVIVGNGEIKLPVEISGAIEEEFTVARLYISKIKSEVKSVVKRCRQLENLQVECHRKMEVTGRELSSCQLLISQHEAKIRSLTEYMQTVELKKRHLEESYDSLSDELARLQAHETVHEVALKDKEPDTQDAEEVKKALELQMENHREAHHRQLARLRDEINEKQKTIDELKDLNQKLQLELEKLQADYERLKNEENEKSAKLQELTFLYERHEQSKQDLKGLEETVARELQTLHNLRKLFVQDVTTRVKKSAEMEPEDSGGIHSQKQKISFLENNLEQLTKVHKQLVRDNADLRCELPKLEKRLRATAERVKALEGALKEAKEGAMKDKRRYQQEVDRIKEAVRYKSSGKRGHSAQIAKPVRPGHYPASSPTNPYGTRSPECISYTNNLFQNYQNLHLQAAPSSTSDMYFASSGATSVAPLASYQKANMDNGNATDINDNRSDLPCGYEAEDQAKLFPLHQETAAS

With “adenomatous polyposis coli (APC), full-length, Q61315 1-2845” the dwell time, long diffusion events (microtubules (MTs) [1]) was 26.3 s, the percent of processive KIF5AA-647 that transports APC–TMR [2] was 25% and the dwell time with EB1 (fast and slow components) (microtubules (MTs) [3]) was > 60 s.
